Experimental data reported in publication PMC6848165, “C1R Mutations Trigger Constitutive Complement 1 Activation in Periodontal Ehlers-Danlos Syndrome” (Frontiers in Immunology, 2019).
Changes are numbered by the printed parent chain. Names may count otherwise.

B1: C1r p.S654A (enzymatically inactive proenzyme C1r 'WT') (enzyme, human, UniProt P00736 18-705, looked up)
chain: SIPIPQKLFGEVTSPLFPKPYPNNFETTTVITVPTGYRVKLVFQQFDLEPSEGCFYDYVKISADKKSLGRFCGQLGSPLGNPPGKKEFMSQGNKMLLTFHTDFSNEENGTIMFYKGFLAYYQAVDLDECASRSKSGEEDPQPQCQHLCHNYVGGYFCSCRPGYELQEDTHSCQAECSSELYTEASGYISSLEYPRSYPPDLRCNYSIRVERGLTLHLKFLEPFDIDDHQQVHCPYDQLQIYANGKNIGEFCGKQRPPDLDTSSNAVDLLFFTDESGDSRGWKLRYTTEIIKCPQPKTLDEFTIIQNLQPQYQFRDYFIATCKQGYQLIEGNQVLHSFTAVCQDDGTWHRAMPRCKIKDCGQPRNLPNGDFRYTTTMGVNTYKARIQYYCHEPYYKMQTRAGSRESEQGVYTCTAQGIWKNEQKGEKIPRCLPVCGKPVNPVEQRQRIIGGQKAKMGNFPWQVFTNIHGRGGGALLGDRWILTAAHTLYPKEHEAQSNASLDVFLGHTNVEELMKLGNHPIRRVSVHPDYRQDESYNFEGDIALLELENSVTLGPNLLPICLPDNDTFYDLGLMGYVSGFGVMEEKIAHDLRFVRLPVANPQACENWLRGKNRMDVFSQNMFCAGHPSLKQDACQGDAGGVFAVRDPNTDRWVATGIVSWGIGCSRGYGFYTKVLNYVDWIKKEMEEED
notes: also called C1r WT with additional p.S654A mutation; source: 293-F cells co-transfected with C1s, purified as part of the tetramer as described (19)
B2: C1r p.(D290G) with additional p.S654A mutation (enzyme, human, UniProt P00736 18-705, looked up)
chain: B1 chain with D273G
notes: also called c.869A>G; source: 293-F cells co-transfected with C1s, purified as part of the tetramer as described (19)

Biological target: the molecule itself
Test: SEC; purified tetramers on Superose 6 Increase 10/300 GL, 50 mM Tris, 150 mM NaCl, pH 7.4, 5 mM EDTA, 0.5 ml/min

Row | Protein | stoichiometry N
1 | B1 | 2
2 | B2 | 2
